Reference: paper PMC3608554

Target: PLCg2 (UniProt P16885)
Assay: anti-PLCg2 IP, anti-BANK1 blot
Conditions: reference: wild type; sites Y484,Y488

binding against the reference: weaker
Substance: BANK1 (from UniProt Q8NDB2) Y484F/Y488F
